Results from the supplement of paper PMC12636428.

These sequences were tested on Saccharomyces cerevisiae (assay: transcriptional activation domain activity (GFP:mCherry ratio, weighted mean of sorted bins, harmonized to initial dataset scale) (arbitrary fluorescence ratio units); higher = stronger transcriptional activation). Settings: beta-estradiol 1 µM; induction time 4 h.
Method: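 53-aa protein tiles (fungal proteins plus yeast TF control tiles) fused C-terminally to a DBD-estrogen-binding domain-mCherry synthetic TF, integrated in S. cerevisiae (URA3 locus) with a GFP reporter. Cells were induced with 1 uM beta-estradiol for 4 h at 30 C, FACS-sorted into 8 bins by GFP:mCherry ratio and barcodes sequenced. Activity is the read-weighted mean bin fluorescence (GFP:mCherry), averaged over barcodes (median 12); tiles under 50 reads were discarded. New active-learning values were harmonized by linear fit onto the scale of the initial (Hummel et al.) dataset. The assay saturates at low and high signal.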

Row | Sequence | transcriptional activation domain activity
1 | APAPIAAEPAPAPAVETPAPAPAPATEEKKEEAAAPAVEATPAPAAAPAAATT | 30500
2 | APAQPAATGGGLFGSGATGTTGGFGSNTAGGFGTGGGFGAKPAFGATPSTTGG | 15600
3 | APATTAAATTSATPAVTSTLLAKPATTTTSTATPAPAAAGSLFGGAKAAGTTA | 37000
4 | APDAKTVLPIPELDDAVVESFFSSSTDSTPMFEYENLEDNSKEWTSLFDNDIP | 137000
5 | APDQPLTTQGKPRTRVYVACIQCRSRKIRCDGAKPVCHNCSHRASSAVGGVLE | 18000
6 | APFFLPPFHFFFPFFPFPFFLGSFPFLFSFPFPFSFPFFLFHFPSFFPFLPSF | 65400
7 | APFSKGPRMWNEVYITSLAHGCLVNRLFCSLAWCELYLIFGNIFRRLDLKLFV | 58100
8 | APIDCPHRRLEVIMGLRPTRHIVLSILGLVITGFVSMDRADCIEFLLDLEPGD | 39800
9 | APIILGFSCGVCIHHLLACCIFVMIFIIRIFDPVYIPSMVLLFLCSCLSDRHG | 69700
10 | APKAAAPPPAPVPAPAPVAAPAPAASVELGPDGQPKRRRGRPKGSKNKPKIPP | 35700
11 | APKDESEAPKPAEEDSPSKRKKAEEVKIEKKEETPARPEPQHTQPKQPAAKAK | 10100
12 | APKEETTKPTIEVKIDVGSRCEVESTEPGLSKRGTVRFVGQTSFGNGEGVWVG | 42200
13 | APMGRRTFAVDVDESGNSLAKKVKAARVKGYNYIIVVGERDLERGTAAVECVV | 36000
14 | APPAAAAAAAAAPAKKAKKAKKAKKAGLLQKAKKAKKAKKAKKAAAAAAAPAA | 8130
15 | APPEGGDKSESKEPPKKEESAPTEAKPAEPKEENKPEAKQASNKETKPESSKP | 23300
16 | APPPAAAPSQPASQPAPAEKHEEPAPQPSPEPQPEPQAQIEESKQEPAPEPQA | 20300
17 | APPPPPPPPPPAPPARSGAPPPPPPPPPPPMGGAPPPPPPPMGGPPPPPPPPP | 36400
18 | APPPPPPPPPPPPPPPSSSSAPSPSSTSAPPPPPPPPPPPPPPPGGGGPPPPP | 32900
19 | APPPPQPAPPVSVAPSKKTSKSKVDAPASNNEPEPVSAPKKGRKGKSKAIAQT | 12200
20 | APPPREGGARGGRGGRGRGEFRGGEGRGRGEGRESRGGEGRGRGGEGRGEFRG | 25900
21 | APPSSKPSPPPTSAASPAAPRAASPRPRAASSAGCRPRRGATRCCSRARASRS | 39400
22 | APQGEEKAPAPRRSKRAKTAAPSDQETEETATKVVAGKAGAGKGKAVAAKAAA | 51800
23 | APQPVEATAIDDGFQEAKRGRGRKKAKEEVVASAPAAPADAPQVAKAKVVASA | 23300
24 | APRARPAPAQRVGPRARAAEQLHRADGQHRERARRQHGRRHPPAAGAAPAVRL | 52800
25 | APSAARRSHTKSSPSSGTSPSGPPSARTSSRCTPPPRSSSPSGRRRSSCCKRS | 45900
26 | APSDTNGNGKRKQTKSRNGCTTCKAKRLKCDETKPHCKQCARRSVQCGGYRKE | 39400
27 | APSIRYRLPFDSLLFVFCGTLLCTLIFLREALIPHFPCWVLLWGAYILLPLCF | 15900

Row | Sequence | transcriptional activation domain activity
28 | APSPPPAPEPVPEMKAIEAAPEPEPEPEPEDKWDVPVVAKKGKKAKKGAASQA | 25000
29 | APSPTPDDDADMKKKDGDGKKDGEDGKKKMKMVTALKNCSFTVPAGTTAALVG | 39400
30 | APSRRTGRTSTAGSASESRPTSSCTSPRRPPTPPARPPASPRTRRTSPRRPSA | 31000
31 | APSSSAAADGLTSPKPTGTRAALRSILREEGAAGLLRGLSPRVAKVAPACGMM | 42700
32 | APTAARVVPSACPSSVTSRATATATMTSPGGGSRSSSRTAAAAAPTGAAVARC | 48400
33 | APTDETGDAETKPRGRGRPKGSGTAKKAESQPESAEPTTARRGRKRASAAAES | 43400
34 | APTLNYELARKFIENSEDALHNSETMDLLGTLSHGNDFALEYNFDFTLLNEID | 121000
35 | APTTSKKRGRKADTNSDDAGSPSEPRRLRRSHEACARCRSKKIKASPVGRHRP | 30900
36 | APVAEPVPVASTSSEVKKDEEEADEDEEDDNVASIEAKIAAARSRLSATHCLF | 10900
37 | AQEAIAEQGEERGDGAGQEKAPVGKRAAEDPAAAPRGSAKRKADKGERSGAEQ | 7850
38 | AQEEFRTYIQEHLVAEQVIAADESSKDDHTIIQHFGRAPHVLWLLLVLMAIWL | 78200
39 | AQKVKNESDTDERPAPVKKGRKAATSKVKDESEDEAPAPAPAKRGRRAAAVKA | 47500
40 | AQLHHRTWLIHWSLFPFFNFEPAKETLTEMFFSPAYINTIQTNCPWILRYLAA | 56700
41 | AQLLQRTWLIHWSLFVFFNHPRGRDYIVDLLFQPNYINSIQMACPWILRYLTA | 45100
42 | AQLLRLAHIHQIRHMVHIFSPVWYRPAVIYCFIAICFIVVLNIQALLSIVWSS | 45900
43 | AQLTLRAIVSSKEAGVIIGKGGKNVADLRDETGVKAGVSKVVQGVHDRVLTIT | 29600
44 | AQPKTEAPKKVAKPRAKKGEAAEGEVKKGGRGKKRSAEGEEKAEEKAEDKPAE | 30600
45 | AQPPAIEGKKSKKGEAPAAEVQKKEKKEKKPAEEGASKKGGSAKAAAAPAEDA | 9790
46 | AQPSAGFGQPSTIGAKPNPFGAPAFGQPAQPAGPAFGQPSQPTTTAAFGQPSQ | 29900
47 | AQQPQKKPGAPKPKGAVRAKSGCYTCRIRRKKCDENPNAEGACQTCVRLRLQC | 66200
48 | AQRHLLKCIVFRTEKSLINFVPELTEAKARDIRMLHFYPPALQRAALILLVKT | 47500
49 | AQSSPVRASPHPADSPSKPAAKPVSKPATAAPPAASKPTTAAAPKAAAAKPVS | 27200
50 | AQSTSVVLVFGSDEKKVKEIGEGLKSKLGIKGGGKGTRWSGKFTGVWKDAREG | 46700
51 | ARAAAQNDDGTPKKGRGRPRKAAAAAATSDEEPAATTPKEPKKRGRKPKAVEP | 36000
52 | ARAEELGARVSTGRRVVDVRCSSRGEEGSAAVAVCADGSRYAADLVVGADGVH | 51600
53 | ARAYISLCWRMIVTKGLHRPPVSSVVDKALRKRQLKLLMVLYYNDFTNAVYSG | 52300
54 | ARDDGGGEGAAGETHQAQEARRVLDAGGRARAGAGALRAGPQQHPAPARALRP | 14300

Row | Sequence | transcriptional activation domain activity
55 | ARDMLEDTFLIPKNLYAVHGPGISVKALEIADALVDVVNQYDQNAESEAWNFL | 112000
56 | AREGARIRIVNRTVTVGKRTMSARSEVYDADNSRLVASGSHSKMTGSQPETRL | 17700
57 | AREIISAGWAKVHDSGSRRNANSQPEEEEEGGWKAKLRELQEEAKAAARGVWG | 35300
58 | ARFNLYLLSWLHVLSAKSASLGSSKAWWIRPAEIAMMSCYWYIFGYLLLWCTL | 65800
59 | ARGEKNPPMTQKDLATKVNEKPSVINDYESGRAVPDQKVLAKLERALGVKLRG | 50400
60 | ARGGEKKRREPGRGKRRTGGEERGGRRKTRRANAGETGGERRPRGATPGRKPA | 38500
61 | ARGMYLMVDVVANQFGILCSRADGTSIDDFDFSGLWPFSSSSYFHPMCWLYWL | 64000
62 | ARGTTTPPPAPSTGSPSAPAAASRSSTGRSSATASCRTARCARASGRSAPGAG | 42900
63 | ARKAFLLIEHMLELEGPPLIWNLLEILHNIMHLKQGRLFNMLIIHLMSLARSH | 67400
64 | ARLLPDTIHLYILVVASLVNTLCVLFLDCCFLLLFFLFFYFFYPFLLFLFASF | 41200
65 | ARLRALEIIRAGHEGGYDGFFWGAWIPGLFHGKMTDIIALLLTHWGNVRNPAS | 65700
66 | ARNGSSSGDILFSNGAHDMINNISTWTNNSVLDALNSKSILQTIFPQSQEPSS | 58200
67 | ARQGVGMMQSNVVFFFFFSFSFLFLFFFFSFSFLFLFFFPFSIIPTCSSLAVF | 44800
68 | ARQSDDDGQVKVYQRGSASLVAMLLTNLAPNETLIALINLIADRPWLKALYAL | 80500
69 | ARTSDYSIAQWRFLTKLLLVHGRWNYNRICKYIVGTFWKEIVFYLTQALYQRY | 45400
70 | ARVIRCNRSAELHVVNRLREVCEDQELRADSTALTSLVRTCRSDLRACINALQ | 59300
71 | ARVLGKKNTLEGLASTIRGTVRFVRETCYAVIYCMTRLDMQFYGFLELPGPLA | 39600
72 | ARVLRWCLTMICLTVSALLGRVILFSSAALTLVEILHDDFGFSRNLVLKNLCN | 90400
73 | ARVQVNFWFFLFVYYGFYNLTALIWITKVFNLYSLNWWPSMLGFPLTISLIAI | 75700
74 | ARVQVNFWFFLFVYYGFYNLTALMWITKVFNLYSLNWWPSTMGFPLTITLIAI | 55300
75 | ARWSVAKVFYILGRYYGLFYMIVQLYISLTLDLALNVQRLLLVLDLVWRCCLY | 54000
76 | ARYIVKYKNGLIGKHFKILQHLGIFHLHNDLCGDNLFNLWKAAGGLGALLWFP | 57600
77 | ARYVVQYKNSLIGKHFKMLQQLGIFHLHDLCSPLLFDLWKATGELGALLWFPE | 66700
78 | ASAAASGASTPATAAPPGGLFGKTPATAAPAAATPAATKSLFPAAATTTAPAA | 45700
79 | ASASASALPSSGFGATRGMKVRASVKKICEGCSSVKRRGRVFIICSKNQKHKQ | 36400
